Here are results for one protein from article PMC8286825 (Biochemical Journal, 2021).

Experiment in all cases: AUC
The data set “AUC” concerns the molecule itself.
The target of data set [1] is A6NHR9.
The target of data set [2] is A6NHR9. This is another data set of the same source.
Data set [3] deals with A6NHR9. The source holds these as a separate data set.
Data set [4] addresses A6NHR9. The source holds these as a separate data set.
Data set [5] deals with A6NHR9. This is another data set of the same source.

Where two headings read alike, the source gives them in different places.

B1: UBL-containing SMCHD1 ATPase (residues 25–702) (domain or fragment, human, UniProt A6NHR9 25-702, looked up)
chain: HRTVYLFDRREKESELGDRPLQVGERSDYAGFRACVCQTLGISPEEKFVITTTSRKEITCDNFDETVKDGVTLYLLQSVNQLLLTATKERIDFLPHYDTLVKSGMYEYYASEGQNPLPFALAELIDNSLSATSRNIGVRRIQIKLLFDETQGKPAVAVIDNGRGMTSKQLNNWAVYRLSKFTRQGDFESDHSGYVRPVPVPRSLNSDISYFGVGGKQAVFFVGQSARMISKPADSQDVHELVLSKEDFEKKEKNKEAIYSGYIRNRKPSDSVHITNDDERFLHHLIIEEKEKDSFTAVVITGVQPEHIQYLKNYFHLWTRQLAHIYHYYIHGPKGNEIRTSKEVEPFNNIDIEISMFEKGKVPKIVNLREIQDDMQTLYVNTAADSFEFKAHVEGDGVVEGIIRYHPFLYDRETYPDDPCFPSKLKDEDDEDDCFILEKAARGKRPIFECFWNGRLIPYTSVEDFDWCTPPKKRGLAPIECYNRISGALFTNDKFQVSTNKLTFMDLELKLKDKNTLFTRILNGQEQRMKIDREFALWLKDCHEKYDKQIKFTLFKGVITRPDLPSKKQGPWATYAAIEWDGKIYKAGQLVKTIKTLPLFYGSIVRFFLYGDHDGEVYATGGEVQIAMEPQALYDEVRTVPIAKLDRTVAEKAVKKYVEDEMARLPDRLSVTWPEGDE
On to B1, for which the “stoichiometry N” value in the data set “AUC” is 2. The Monomer (%) with A6NHR9 [1] was 57.6%; with A6NHR9 [2], 88.2%; in the data set with A6NHR9 [3] it was 61.5%; with A6NHR9 [4] it was 76.8%; with A6NHR9 [5], 53.4%.

Broadly, the stoichiometry N is a count of units in the complex or per binding partner.
